# In patent US20220401557A1 (Chugai, published 2022):
# Molecular target: CD3 on NFAT-RE-luc2-Jurkat cells (human, UniProt P07766 23-207)
# Test: cell-based or functional assay
# Chain of CD3 on NFAT-RE-luc2-Jurkat cells (P07766 23-207): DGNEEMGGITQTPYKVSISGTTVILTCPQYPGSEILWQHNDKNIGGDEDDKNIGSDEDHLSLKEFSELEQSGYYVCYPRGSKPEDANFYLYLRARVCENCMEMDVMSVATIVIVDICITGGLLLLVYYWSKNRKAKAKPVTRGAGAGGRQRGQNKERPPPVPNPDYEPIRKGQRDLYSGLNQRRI
Binder,"increase rate due to the protease treatment (luciferase, uPA-treated / untreated), antibody 0.1 nM [ratio]","increase rate due to the protease treatment (luciferase, uPA-treated / untreated), antibody 1 nM [ratio]"
"hCE115HAuPA27/GLS//GCH065 (bispecific antibody, human IgG1, kappa, N297A) heavy 1: QDGNEEMGGITQTPYKVSISGTTVILTLSGRSDNHQVQLVESGGGVVQPGRSLRLSCAASGFTFSNAWMHWVRQAPGKGLEWVAQIKAKSNNYATYYAESVKGRFTISRDDSKNSLYLQMNSLKTEDTAVYYCRYVHYGAYYGVDAWGQGTTVTVSSASTKGPSVFPLAPSSKSTSGGTAALGCLVKDYFPEPVTVSWNSGALTSGVHTFPAVLQSSGLYSLSSVVTVPSSSLGTQTYICNVNHKPSNTKVDKKVEPKSCDKTHTCPPCPAPELRGGPKVFLFPPKPKDTLMISRTPEVTCVVVDVSHEDPEVKFNWYVDGVEVHNAKTKPREEQYASTYRVVSVLTVLHQDWLNGKEYKCKVSNKALPAPIEKTISKAKGQPREPQVYTLPPSRKEMTKNQVSLTCLVKGFYPSDIAVEWESNGQPENNYKTTPPYLDSDGSFFLYSKLTVDKSRWQQGNVFSCSVMHEALHNHYTQKSLSLSP light 1: DIVMTQSPLSLPVTPGEPASISCRSSQSLVHSNRNTYLHWYQQKPGQAPRLLIYKVSNRFSGVPDRFSGSGSGTDFTLKISRVEAEDVGVYYCGQGTQVPYTFGQGTKLEIKRTVAAPSVFIFPPSDEQLKSGTASVVCLLNNFYPREAKVQWKVDNALQSGNSQESVTEQDSKDSTYSLSSTLTLSKADYEKHKVYACEVTHQGLSSPVTKSFNRGEC heavy 2: QVQLVQSGAEVKKPGASVTVSCKASGYTFTDYEMHWIRQPPGEGLEWIGAIDGPTPDTAYSEKFKGRVTLTADKSTSTAYMELSSLTSEDTAVYYCTRFYSYTYWGQGTLVTVSSASTKGPSVFPLAPSSKSTSGGTAALGCLVKDYFPEPVTVSWNSGALTSGVHTFPAVLQSSGLYSLSSVVTVPSSSLGTQTYICNVNHKPSNTKVDKKVEPKSCDKTHTCPPCPAPELRGGPKVFLFPPKPKDTLMISRTPEVTCVVVDVSHEDPEVKFNWYVDGVEVHNAKTKPREEQYASTYRVVSVLTVLHQDWLNGKEYKCKVSNKALPAPIEKTISKAKGQPREPQVYTLPPSREEMTKNQVSLTCLVKGFYPSDIAVEWESNGQPENNYKTTPPYLDSDGSFFLYSKLTVDKSRWQQGNVFSCSVMHEALHNHYTQESLSLSP light 2: DIVMTQSPLSLPVTPGEPASISCRSSQPLVHSNRNTYLHWYQQKPGQAPRLLIYKVSNRFSGVPDRFSGSGSGTDFTLKISRVEAEDVGVYYCGQGTQVPYTFGQGTKLEIKRTVAAPSVFIFPPSDEQLKSGTASVVCLLNNFYPREAKVQWKVDNALQSGNSQESVTEQDSKDSTYSLSSTLTLSKADYEKHKVYACEVTHQGLSSPVTKSFNRGEC",0.9,1.4
"ANGS/GLS//GCH065 (bispecific antibody, human IgG1, kappa, N297A) heavy 1: QDGNEGGGSGGGSQVQLVESGGGLVQPGRSLRLSCAASGFTFSNAWMHWVRQAPGKGLEWVAQIKDKANGYNAYYAESVKGRFTISRDDSKNSIYLQMNSLKTEDTAVYYCRYVHYTTYAGFSYKFGVDAWGQGTTVTVSSASTKGPSVFPLAPSSKSTSGGTAALGCLVKDYFPEPVTVSWNSGALTSGVHTFPAVLQSSGLYSLSSVVTVPSSSLGTQTYICNVNHKPSNTKVDKKVEPKSCDKTHTCPPCPAPELRGGPKVFLFPPKPKDTLMISRTPEVTCVVVDVSHEDPEVKFNWYVDGVEVHNAKTKPREEQYASTYRVVSVLTVLHQDWLNGKEYKCKVSNKALPAPIEKTISKAKGQPREPQVYTLPPSRKEMTKNQVSLTCLVKGFYPSDIAVEWESNGQPENNYKTTPPYLDSDGSFFLYSKLTVDKSRWQQGNVFSCSVMHEALHNHYTQKSLSLSP light 1: DIVMTQSPLSLPVTPGEPASISCRSSQSLVHSNRNTYLHWYQQKPGQAPRLLIYKVSNRFSGVPDRFSGSGSGTDFTLKISRVEAEDVGVYYCGQGTQVPYTFGQGTKLEIKRTVAAPSVFIFPPSDEQLKSGTASVVCLLNNFYPREAKVQWKVDNALQSGNSQESVTEQDSKDSTYSLSSTLTLSKADYEKHKVYACEVTHQGLSSPVTKSFNRGEC heavy 2: QVQLVQSGAEVKKPGASVTVSCKASGYTFTDYEMHWIRQPPGEGLEWIGAIDGPTPDTAYSEKFKGRVTLTADKSTSTAYMELSSLTSEDTAVYYCTRFYSYTYWGQGTLVTVSSASTKGPSVFPLAPSSKSTSGGTAALGCLVKDYFPEPVTVSWNSGALTSGVHTFPAVLQSSGLYSLSSVVTVPSSSLGTQTYICNVNHKPSNTKVDKKVEPKSCDKTHTCPPCPAPELRGGPKVFLFPPKPKDTLMISRTPEVTCVVVDVSHEDPEVKFNWYVDGVEVHNAKTKPREEQYASTYRVVSVLTVLHQDWLNGKEYKCKVSNKALPAPIEKTISKAKGQPREPQVYTLPPSREEMTKNQVSLTCLVKGFYPSDIAVEWESNGQPENNYKTTPPYLDSDGSFFLYSKLTVDKSRWQQGNVFSCSVMHEALHNHYTQESLSLSP light 2: DIVMTQSPLSLPVTPGEPASISCRSSQPLVHSNRNTYLHWYQQKPGQAPRLLIYKVSNRFSGVPDRFSGSGSGTDFTLKISRVEAEDVGVYYCGQGTQVPYTFGQGTKLEIKRTVAAPSVFIFPPSDEQLKSGTASVVCLLNNFYPREAKVQWKVDNALQSGNSQESVTEQDSKDSTYSLSSTLTLSKADYEKHKVYACEVTHQGLSSPVTKSFNRGEC",1,1
"AN/GLS//GCH065 (bispecific antibody, human IgG1, kappa, N297A) heavy 1: QVQLVESGGGLVQPGRSLRLSCAASGFTFSNAWMHWVRQAPGKGLEWVAQIKDKANGYNAYYAESVKGRFTISRDDSKNSIYLQMNSLKTEDTAVYYCRYVHYTTYAGFSYKFGVDAWGQGTTVTVSSASTKGPSVFPLAPSSKSTSGGTAALGCLVKDYFPEPVTVSWNSGALTSGVHTFPAVLQSSGLYSLSSVVTVPSSSLGTQTYICNVNHKPSNTKVDKKVEPKSCDKTHTCPPCPAPELRGGPKVFLFPPKPKDTLMISRTPEVTCVVVDVSHEDPEVKFNWYVDGVEVHNAKTKPREEQYASTYRVVSVLTVLHQDWLNGKEYKCKVSNKALPAPIEKTISKAKGQPREPQVYTLPPSRKEMTKNQVSLTCLVKGFYPSDIAVEWESNGQPENNYKTTPPYLDSDGSFFLYSKLTVDKSRWQQGNVFSCSVMHEALHNHYTQKSLSLSP light 1: DIVMTQSPLSLPVTPGEPASISCRSSQSLVHSNRNTYLHWYQQKPGQAPRLLIYKVSNRFSGVPDRFSGSGSGTDFTLKISRVEAEDVGVYYCGQGTQVPYTFGQGTKLEIKRTVAAPSVFIFPPSDEQLKSGTASVVCLLNNFYPREAKVQWKVDNALQSGNSQESVTEQDSKDSTYSLSSTLTLSKADYEKHKVYACEVTHQGLSSPVTKSFNRGEC heavy 2: QVQLVQSGAEVKKPGASVTVSCKASGYTFTDYEMHWIRQPPGEGLEWIGAIDGPTPDTAYSEKFKGRVTLTADKSTSTAYMELSSLTSEDTAVYYCTRFYSYTYWGQGTLVTVSSASTKGPSVFPLAPSSKSTSGGTAALGCLVKDYFPEPVTVSWNSGALTSGVHTFPAVLQSSGLYSLSSVVTVPSSSLGTQTYICNVNHKPSNTKVDKKVEPKSCDKTHTCPPCPAPELRGGPKVFLFPPKPKDTLMISRTPEVTCVVVDVSHEDPEVKFNWYVDGVEVHNAKTKPREEQYASTYRVVSVLTVLHQDWLNGKEYKCKVSNKALPAPIEKTISKAKGQPREPQVYTLPPSREEMTKNQVSLTCLVKGFYPSDIAVEWESNGQPENNYKTTPPYLDSDGSFFLYSKLTVDKSRWQQGNVFSCSVMHEALHNHYTQESLSLSP light 2: DIVMTQSPLSLPVTPGEPASISCRSSQPLVHSNRNTYLHWYQQKPGQAPRLLIYKVSNRFSGVPDRFSGSGSGTDFTLKISRVEAEDVGVYYCGQGTQVPYTFGQGTKLEIKRTVAAPSVFIFPPSDEQLKSGTASVVCLLNNFYPREAKVQWKVDNALQSGNSQESVTEQDSKDSTYSLSSTLTLSKADYEKHKVYACEVTHQGLSSPVTKSFNRGEC",0.6,0.7
